{"source": "paper PMC4629423", "experiment_in_all_cases": "two-hybrid", "key": {"[1]": {"molecular_target": "SARS-CoV accessory protein 9b (yeast two-hybrid fusions) (SARS-CoV Tor2 isolate)"}, "[2]": {"molecular_target": "SARS-CoV accessory protein 8a (yeast two-hybrid fusions) (SARS-CoV Tor2 isolate)"}, "[3]": {"molecular_target": "SARS-CoV accessory protein ORF14 (yeast two-hybrid fusions) (SARS-CoV Tor2 isolate)"}}, "data": [{"substance": "SARS-CoV accessory protein 9b (yeast two-hybrid fusions) (natural protein)", "values": [{"measurement": "α-Galactosidase", "setting": "[1]", "result": 2.52}, {"measurement": "β-Galactosidase", "setting": "[1]", "result": 8.8}, {"measurement": "α-Galactosidase", "setting": "[2]", "result": 1.17}, {"measurement": "β-Galactosidase", "setting": "[2]", "result": 6.91}]}, {"substance": "SARS-CoV accessory protein ORF14 (yeast two-hybrid fusions) (natural protein)", "values": [{"measurement": "α-Galactosidase", "setting": "[3]", "result": 1.84}, {"measurement": "β-Galactosidase", "setting": "[3]", "result": 6.03}]}]}
